Assay results taken from patent US20240109965A1.
Substitutions are numbered along the chain they refer to.

B1: A022600427 (protein)
chain: DVQLVESGGGVVQPGGSLRLSCVASGYVHKINFYGWYRQAPGKEREKVAHISIGDQTDYADSAKGRFTISRDESKNTVYLQMNSLRPEDTAAYYCRALSRIWPYDYWGQGTLVTVSSGGGGSEVQLVESGGGVVQPGGSLRLSCAASGFTFSSFAMTWVRRPPGKGLEWVATITNAGVTSYADSVKGRFTISRDNAKNTLYLQMNSLRPEDTALYICANARRTGPRAPTDIGSYRGQGTLVTVSSGGGGSGGGSEVQLVESGGGVVQPGGSLRLSCAASGSIFRSVFSSSTMEWYRQAPGKKRELVARIAPGEGTYYGALYADSVKGRFTISRDNAKNTVYLQMNSLRPEDTALYYCASGVAWGQGTLVTVSSGGGGSGGGSEVQLVESGGGVVQPGGSLRLSCAASGFTFRSFGMSWVRQAPGKGPEWVSSISGSGSDTLYADSVKGRFTISRDNSKNTLYLQMNSLRPEDTALYYCTIGGSLSRSSQGTLVTVSSA
B2: A022600462 (protein)
chain: B1 chain with D61E, W102Y, A176K

Columns and labels:
[1] = target: human T cell receptor (TCRαβ) on primary human T cells (human); experiment: cell-based or functional assay
[2] = target: cynomolgus T cell receptor (TCRαβ) on primary cynomolgus T cells (cynomolgus); experiment: cell-based or functional assay

human T cell receptor (TCRαβ) on primary human T cells (human), sequence (P0DTU3 134-275, chain 1 of 2): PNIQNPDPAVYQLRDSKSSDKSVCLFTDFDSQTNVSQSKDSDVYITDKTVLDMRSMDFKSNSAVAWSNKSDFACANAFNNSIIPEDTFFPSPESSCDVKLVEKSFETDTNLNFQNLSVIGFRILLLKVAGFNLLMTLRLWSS
human T cell receptor (TCRαβ) on primary human T cells (human), sequence (P01850 other isoform, or with tags, fused parts or gaps, chain 2 of 2, further chain): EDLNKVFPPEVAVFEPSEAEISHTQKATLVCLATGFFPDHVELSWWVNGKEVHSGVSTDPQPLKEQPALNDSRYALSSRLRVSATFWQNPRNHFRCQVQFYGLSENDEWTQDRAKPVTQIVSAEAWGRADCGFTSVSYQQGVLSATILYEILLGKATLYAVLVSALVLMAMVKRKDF

Binder | IC50 (M), human T cell mediated HuH-7 cell killing, Human Donor #1 [1] [M] | IC50 (M), human T cell mediated HuH-7 cell killing, Human Donor #2 [1] [M] | IC50 (M), cynomolgus T cell mediated HuH-7 cell killing, Cynomolgus Donor #1 [2] [M] | IC50 (M), cynomolgus T cell mediated HuH-7 cell killing, Cynomolgus Donor #2 [2] [M]
B1 | 3e-10 | 1.1e-10 | 2.3e-08 | 2.5e-10
B2 | 2.8e-10 | 1e-10 | 3.9e-09 | 2.2e-10
